In patent US20250257130A1 (NONA BIOSCIENCES SUZHOU, published 2025):

Key:
[1] = target: T1, human ROR1 on cells (HEK293T-hROR1, PANC-1, A549) (human, UniProt Q01973 30-937); assay: flow cytometry, PANC-1 cells
T1 construct: whole, on cells; one molecule for the three cell lines; also called huROR1; cell surface ROR1
Description: (§1) In brief, anti-ROR1 antibodies were serially diluted in staining buffer (PBS containing 2% FBS). Antibody solution was incubated with 1×10⁵ cells at 4° C. for 1 hour. […] After 1-hour incubation at 4° C., cells were washed twice with staining buffer and subjected to flow cytometry. PR000374 (Bench marker 1) and non-relevant IgG isotype control (Crownbio) were used as positive and negative controls, respectively.

[2] = target: T1, human ROR1 on cells (HEK293T-hROR1, …); assay: flow cytometry on A549 cells, MFI (Mean)
Description: (§2) Binding of recombinant anti-ROR1 antibodies to human or cynomolgus ROR1-overexpressing cells was tested by flow cytometry. In this example, ROR1-expressing cell lines are HEK293T cell lines that had been transfected to express human ROR1 on the surface (HEK293T-hu ROR1, KYINNO BIOTECHNOLOGY CO., LTD, Catalog #KC-1018), CHO-K1 cell lines that had been transfected to express cynomolgus ROR1 (CHOK1-cyno ROR1), PANC-1 (ATCC, catalog: CRL-1469) or A549 cell lines (Shanghai Institute of Biochemistry and Cell Biology, Chinese Academy of Sciences).
as §1

[3] = target: T2, hu-ROR2-ECD-his (Acrobiosystems RO2-H52E5) (human, UniProt Q01974 34-403); assay: ELISA, plate coated with hu-ROR2-his at 1 µg/mL
T2 construct: extracellular domain; bought protein; also called Human ROR2 his-tagged protein; Human ROR2, His Tag
How it was run: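 Plates were coated overnight at 4 °C with 1 μg/mL human ROR2-ECD-his and blocked with 2% BSA. Serially diluted anti-ROR1 antibodies were bound for 1 h at 37 °C, then secondary antibody for 1 h at 37 °C. Detection was by TMB (~5 min), stopped with H2SO4, and read at 450/570 nm.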

[4] = target: T3, Human ROR1-ECD-his (Acro Biosystems RO1-H522y) (human, UniProt Q01973 30-406); assay: BLI in-tandem competition; competitor: PR303125
T3 construct: extracellular domain; bought protein; also called hROR1-ECD-his; hu-ROR1-ECD-his
Source text: (§3) To determine if anti-ROR1 antibodies bind to human ROR1 on different or approximate binding epitopes, the ForteBio Octet® RED96e platform was used to perform epitope competition experiments on the anti-ROR1 antibodies. Human ROR1 protein (Acrobiosystems, #RO1-H522y) was biotinylated and then captured onto SA biosensors (ForteBio, #18-5020) to reach loading level of 0.3-0.4 nm. The in-tandem competition assay format was applied and it contains two association steps. Firstly, the antigen-loaded biosensors bind to each antibody (a.k.a, First antibody, 1st Ab) with a saturating concentration of 200 nM for 180 seconds to reach equilibrium and then secondly bind to the competing antibodies (a.k.a, Second antibody, 2nd Ab) of 200 nM for 180 seconds. The second binding signals were recorded as the 100% signal of each antibody when the first antibodies were replaced by kinetics buffer. All the binding data were analyzed using ForteBio Data Analysis 11.0 software. The inhibition rate is calculated by the following formula: […]

[5] = target: T3, Human ROR1-ECD-his (Acro Biosystems …); assay: BLI in-tandem, row = 1st Ab; competitor (2nd Ab): PR005338
Source text: as §3

[6] = target: T3, Human ROR1-ECD-his (Acro Biosystems …); assay: BLI in-tandem, row = 1st Ab; competitor (2nd Ab): PR005340
Source text: as §3

[7] = target: T3, Human ROR1-ECD-his (Acro Biosystems …); assay: BLI in-tandem, row = 1st Ab; competitor (2nd Ab): PR007417
Source text: as §3

[8] = target: T3, Human ROR1-ECD-his (Acro Biosystems …); assay: BLI in-tandem, row = 1st Ab; competitor (2nd Ab): PR007424
Source text: as §3

[9] = target: T1, human ROR1 on cells (HEK293T-hROR1, …); assay: flow cytometry on PANC-1 cells, MFI (FITC-A Median)
Description: as §2, §1

[10] = target: T4, cynomolgus ROR1 on CHO-K1-cynoROR1 cells (cynomolgus monkey, UniProt A0A2K5WTX7 30-937); assay: flow cytometry on CHOK1-cynoROR1 cells, MFI (APC-A Median) [middle panel, letter not given]
T4 construct: whole, on cells
Description: as §2, §1

[11] = target: T3, Human ROR1-ECD-his (Acro Biosystems …); assay: BLI, ROR1-His on HIS1K sensor, antibody in solution
How it was run: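 His-tagged ROR1 (20 nM) captured on HIS1K biosensors; serially diluted antibodies in kinetics buffer as analyte. Association and dissociation rate constants measured by Octet biolayer interferometry, sensors regenerated with 10 mM glycine-HCl pH 1.5 between cycles.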

T1 sequence (Q01973 30-937): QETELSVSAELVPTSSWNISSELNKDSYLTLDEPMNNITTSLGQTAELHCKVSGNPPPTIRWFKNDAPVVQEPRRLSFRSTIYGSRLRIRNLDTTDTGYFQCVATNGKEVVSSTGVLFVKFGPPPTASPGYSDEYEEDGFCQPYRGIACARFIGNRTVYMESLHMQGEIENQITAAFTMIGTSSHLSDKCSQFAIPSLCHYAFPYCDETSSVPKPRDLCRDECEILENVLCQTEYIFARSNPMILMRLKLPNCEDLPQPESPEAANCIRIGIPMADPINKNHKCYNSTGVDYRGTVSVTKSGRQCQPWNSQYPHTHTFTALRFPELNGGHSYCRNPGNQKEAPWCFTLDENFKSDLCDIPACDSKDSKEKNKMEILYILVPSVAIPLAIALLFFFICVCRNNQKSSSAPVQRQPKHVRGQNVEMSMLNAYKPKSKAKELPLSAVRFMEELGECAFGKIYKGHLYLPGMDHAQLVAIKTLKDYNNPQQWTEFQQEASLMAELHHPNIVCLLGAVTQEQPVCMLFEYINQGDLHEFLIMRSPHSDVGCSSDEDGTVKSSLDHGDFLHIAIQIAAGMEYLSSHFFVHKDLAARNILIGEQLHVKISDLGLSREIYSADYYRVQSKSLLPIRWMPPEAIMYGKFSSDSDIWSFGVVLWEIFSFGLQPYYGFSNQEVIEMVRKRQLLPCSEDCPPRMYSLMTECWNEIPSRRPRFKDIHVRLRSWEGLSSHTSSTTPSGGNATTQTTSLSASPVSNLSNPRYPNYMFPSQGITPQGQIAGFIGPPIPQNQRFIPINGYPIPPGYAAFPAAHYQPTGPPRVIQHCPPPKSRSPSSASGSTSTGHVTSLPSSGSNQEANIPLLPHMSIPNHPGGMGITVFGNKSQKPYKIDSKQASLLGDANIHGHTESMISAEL
T3 sequence (Q01973 30-406): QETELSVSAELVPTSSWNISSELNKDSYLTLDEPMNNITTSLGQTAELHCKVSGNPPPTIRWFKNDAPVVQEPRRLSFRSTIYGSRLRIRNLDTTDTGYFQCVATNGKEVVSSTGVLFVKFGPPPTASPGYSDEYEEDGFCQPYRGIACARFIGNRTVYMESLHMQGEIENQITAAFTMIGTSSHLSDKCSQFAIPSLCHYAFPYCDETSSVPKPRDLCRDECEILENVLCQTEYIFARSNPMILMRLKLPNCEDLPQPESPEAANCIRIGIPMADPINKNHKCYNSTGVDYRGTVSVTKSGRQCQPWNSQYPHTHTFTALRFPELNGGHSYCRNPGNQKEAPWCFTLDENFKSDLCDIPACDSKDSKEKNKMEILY
T2 sequence (Q01974 34-403): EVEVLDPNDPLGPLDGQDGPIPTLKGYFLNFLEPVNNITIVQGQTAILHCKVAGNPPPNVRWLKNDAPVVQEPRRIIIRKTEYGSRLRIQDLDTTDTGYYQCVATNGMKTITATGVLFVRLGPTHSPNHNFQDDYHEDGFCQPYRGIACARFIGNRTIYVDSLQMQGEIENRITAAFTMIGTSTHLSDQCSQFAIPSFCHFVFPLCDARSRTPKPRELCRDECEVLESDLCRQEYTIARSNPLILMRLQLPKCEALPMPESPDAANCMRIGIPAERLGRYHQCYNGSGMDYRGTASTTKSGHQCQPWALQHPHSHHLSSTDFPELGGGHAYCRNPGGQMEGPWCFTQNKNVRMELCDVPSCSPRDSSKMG

| EC50 [1] | MAX(MFI) [1] | EC50 (read off the curve) [2] | binding result [3] | Inhibition (%) [4] | Inhibition (%) [5] | Inhibition (%) [6] | Inhibition (%) [7] | Inhibition (%) [8] | EC50 (read off the curve) [9] | EC50 (read off the curve) [10] | Kd [11] | koff [11] | kon [11] | Binder |
| --- | --- | --- | --- | --- | --- | --- | --- | --- | --- | --- | --- | --- | --- | --- |
| 0.905 µg/mL | 442000 MFI | ~0.6 µg/mL | no binding (tested: about 15 µg/ml) | -45% | -7.76% | -7.48% | -10.5% | -8.53% | ~8 nM | ~4 nM |  |  |  | PR000374 (antibody, human IgG1, kappa, V domains shown, positive control; also called Bench marker 1) VH: EVQLVESGGGLVQPGRSLRLSCTASGSDINDYPITWVRQAPGQGLEWIGFINSGGSTWYASWVKGRFTISRDDSKSIAYLQMNSLKTEDTAVYYCARGYSTYYRDFNIWGQGTLVTVSS VL: DIQMTQSPSSLSASVGDRVTINCQASQSIDSNLAWFQQKPGQPPKLLIYRASNLASGVPDRFSGSGSGTDFTLTISSLEAEDVATYYCLGGVGAVSYRTSFGGGTKVEIKR |
|  | 364000 MFI |  | no binding (tested: about 15 µg/ml) | 80% |  |  |  |  |  |  | 0.0395 nM | 0.000115 s⁻¹ | 2.9e+06 M⁻¹ s⁻¹ | PR303191 (antibody, human IgG1, V domains shown, HCAb (heavy chain-only, human IgG1 Fc), no light chain) VH: EVQLLESGGGLVQPGGSLRLSCAASGFIFGSYAMSWVRQAPGKGLEWVSGISGTGGNTYYADSVKGRFTISRDNSKNTLYLQMNSLRAEDTAVYFCERGITIHGVVIIPPDYRGQGTLVTVSS |
| 0.463 µg/mL | 883000 MFI | ~0.2 µg/mL | no binding (tested: about 15 µg/ml) | 104% |  |  |  |  |  |  | < 0.001 nM | < 1e-07 s⁻¹ | 165000 M⁻¹ s⁻¹ | PR303125 (antibody, human IgG1, V domains shown, HCAb (heavy chain-only, human IgG1 Fc), no light chain) VH: EVQLLESGGGLVQPGGSLRLSCAASGFTFSSHAMSWVRQAPGKGLEWVSAISGSGDSTHYAASVKGRFTISRDNSKNTLYLQMNSLRAEDTAVYYCETLLRFLESLGNDGFKIWGQGTMVTVSS |
